Measurements reported in publication PMC3506662, “The Peripheral Binding of 14-3-3γ to Membranes Involves Isoform-Specific Histidine Residues” (PLoS ONE, 2012).
Where no end group is shown, it is not given here. [ ]: non-standard residue; d: D form. pS = N[C@@H](COP(=O)(O)O)C(=O)O

How the values were obtained:
[1] = molecular target: T1, human 14-3-3γ, wild-type (human, UniProt P61981 2-247); assay: differential scanning fluorimetry; d14-3-3γ titrated with peptide from a 0.21 mM stock; SYPRO Orange; 20 to 95°C at 2°C/min; shift of Tm fitted to equation 1; legend: 10 µM subunit in 10 mM Na-Hepes, pH 7.4, 150 mM NaCl; settings: both partners purified
T1 construct: 14-3-3 protein gamma, human; d14-3-3γ is the same protein after extensive dialysis into phosphate-free 10 mM Na-Hepes, pH 7.4; also called wt-14-3-3γ; d14-3-3γ; source: E. coli (BL-21, codon+), GST fusion purified on glutathione-Sepharose 4B, cleaved by thrombin, further purified
T1 sequence: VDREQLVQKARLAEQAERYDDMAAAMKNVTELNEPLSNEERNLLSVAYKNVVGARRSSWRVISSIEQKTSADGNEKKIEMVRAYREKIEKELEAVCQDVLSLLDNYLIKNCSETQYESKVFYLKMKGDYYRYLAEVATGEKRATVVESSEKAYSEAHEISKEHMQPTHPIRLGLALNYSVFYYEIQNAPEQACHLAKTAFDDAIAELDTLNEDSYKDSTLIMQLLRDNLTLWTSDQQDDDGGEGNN

[2] = molecular target: T1, human 14-3-3γ, wild-type; assay: SPR; data not shown; Biacore 3000, 25°C; wt-d14-3-3γ immobilised by amine coupling on CM5 (about 5 000 RU); THp-(1-43) injected in 10 mM Na-Hepes, pH 7.4, 0.005% P20; 0 mM salt; settings: both partners purified

B1: THp-(1-43), Ser19-phosphorylated N-terminal peptide of human tyrosine hydroxylase isoform 1 (peptide)
peptide: MPTPDATTPQAKGFRRAV[pS]ELDAKQAEAIMSPRFIGRRQSLIE
notes: also called phosphopeptide; source: synthetic peptide (CPC Scientific), approx. 90% purity
A Kd [1] of roughly 190 nM and a Kd [2] of roughly 220 nM were found for B1 in this work.
